First the molecules themselves.
B1: Twister Ribozyme (parent)
chain: AACACUGCCAAUGCCGGUCCCAAGCCCGGAUAAAAGUGGAGGGGGCGG

Variants of B1 are the subject of the data set. Briefly: self-cleavage, relative activity (ratio to wild type); higher = more cleavage; co-transcriptional.
AACACUGCCAAUGCCGGUCCCAAGCCCGGAUAAACGUGGAGGGGGCGC [A35C G48C]: the self-cleavage is 1.08.
For the variant AACACUGCCAAUGCCGGUCCCAAGCCGGGAUAAAAGUAGAGGGGGCGG [C27G G38A], the self-cleavage was found to be 0.0803.
AACACUGCCAAUGCCAGUCCCAAGCCCGGAUAAAAGUGGAGGGAGCGG [G16A G44A]: the self-cleavage came to 0.928.
The same measure for AAAACUGCCAAUGCCGGUCCCAAGCCCCGAUAAAAGUGGAGGGGGCGG [C3A G28C]: 0.179; for AACACUGCGAAUGCCGGUCCCAGGCCCGGAUAAAAGUGGAGGGGGCGG [C9G A23G]: 0.0809; for AACACUGCCAAUGCCGGUCCCAAGCCCGGAUAAAAGUAGAGGGGGCGC [G38A G48C]: 1.04.
The same measure for AACACUGCCCAUGCCAGUCCCAAGCCCGGAUAAAAGUGGAGGGGGCGG [A10C G16A]: 0.726; for AACCCUGCCAAUGCCGCUCCCAAGCCCGGAUAAAAGUGGAGGGGGCGG [A4C G17C]: 0.0696; for AACACUGCCAAUGCCGGUCCCAAGCCGGGAUAAAAGUGGAGGGGACGG [C27G G45A]: 0.0977.
The same measure for AACACUGCCAAUGCCGGUCCCAAGCCCGGAUAAAAGUUGAGGGGUCGG [G38U G45U]: 0.707.
As to AACUCUGCCAAUGCCGGUCCCAAGCCCGGAUAAAAGUGGAGGGGGCUG [A4U G47U], the self-cleavage came to 0.0997.
On to AACACUGCCAAUGCCAGUCCCAAGCCCGGAUAAAAGUGGAGGCGGCGG [G16A G43C], for which the self-cleavage was 0.181.
The same measure for AACACUGCGAAUGCCGGUCCCAAGCCCGGAUAAAAGUGGAUGGGGCGG [C9G G41U]: 0.122; for AACACUGCCAAUGCCGGUCCCGAGCCCGGAUAAGAGUGGAGGGGGCGG [A22G A34G]: 0.0987.
Take AACACUCCCAAUGCCGGUCUCAAGCCCGGAUAAAAGUGGAGGGGGCGG [G7C C20U]: the self-cleavage amounted to 0.122.
Regarding AAUACUGCCAAUGCCGGGCCCAAGCCCGGAUAAAAGUGGAGGGGGCGG [C3U U18G], the self-cleavage worked out at 0.0621.
Consider AACACUGCCAAUGCCGGUCCGAAGCCCGGAUAAAGGUGGAGGGGGCGG [C21G A35G], for which the self-cleavage is 0.0519.
The same measure for AACAGUGCCAAUGCCGGUCCCAAGCCCGGAUAAAAGUGUAGGGGGCGG [C5G G39U]: 0.134; for AACACUGCCAAUGCCGGUCCCACGCCCGGAUAAAAGUGGAGGAGGCGG [A23C G43A]: 0.117.
The same measure for AACACUGCCAAUGCCGGUGCCAAGCCCGGAUAAACGUGGAGGGGGCGG [C19G A35C]: 0.393; for AAAACUGCCAAUGCCGGUCCCAAGCCCGGAUAAAAGUGGAGGGGACGG [C3A G45A]: 0.233.
The figure for AACACUGCCAAUGCCGGUCCCAAGCCCCGAUAAAAGUGUAGGGGGCGG [G28C G39U] is 0.173; for AACACUGCCAAUGCCGGUCGCAAGCCCGGAGAAAAGUGGAGGGGGCGG [C20G U31G] it is 0.146.
Regarding AACACUGCCAAUGCCCGUCCUAAGCCCGGAUAAAAGUGGAGGGGGCGG [G16C C21U], the self-cleavage is 0.0834.
The figure for AACACUGCCAAUGCCGGCCCCAAGCCCGGAUAAAAGUGCAGGGGGCGG [U18C G39C] is 0.108.
In the case of AACACUGCCAAUGCCGAUCCCAAGCCCGGAAAAAAGUGGAGGGGGCGG [G17A U31A], the self-cleavage is 0.715.
The same measure for AACACUGCCAAUGCCGGUCCCACGCCCGGAUAAAAUUGGAGGGGGCGG [A23C G36U]: 0.0946; for AGCACUACCAAUGCCGGUCCCAAGCCCGGAUAAAAGUGGAGGGGGCGG [A2G G7A]: 0.07.
For the variant AACACUGCCAAAGCCGGUCCCAAGCCCGGAUAAAAGUGAAGGGGGCGG [U12A G39A], the self-cleavage worked out at 0.677.
Turning to AACACUGCCAAUGCCGGUCUCAAGCCCGGAUGAAAGUGGAGGGGGCGG [C20U A32G], the self-cleavage is 0.82.
For the variant AACCCUGCCAAUGCCGGACCCAAGCCCGGAUAAAAGUGGAGGGGGCGG [A4C U18A], the self-cleavage was 0.0406.
The same measure for AACACUGCCAAUGCCGGUCCCAAUCACGGAUAAAAGUGGAGGGGGCGG [G24U C26A]: 0.0928; for AACACUGCCAAUGCCGGUCCCUAGCCCGGAUAAGAGUGGAGGGGGCGG [A22U A34G]: 0.535.
The same measure for AACACUGCCAAUGCCGGUCCCAAGCCCGGAUAAAGUUGGAGGGGGCGG [A35G G36U]: 0.765; for AACACUUCCAAUGCCGGUUCCAAGCCCGGAUAAAAGUGGAGGGGGCGG [G7U C19U]: 0.0568.
The figure for AACACUGCCAAUGCCCGUCCCAAGCCCGGAUAAAAGUGGAGUGGGCGG [G16C G42U] is 0.115.
As to AACACUGCCAAUGCCGGUCCCAAGCCCGGAUAGAAAUGGAGGGGGCGG [A33G G36A], the self-cleavage amounted to 0.509.
The same measure for UAUACUGCCAAUGCCGGUCCCAAGCCCGGAUAAAAGUGGAGGGGGCGG [A1U C3U]: 0.0886; for AACACUGCCAAUGCCGGUCCCAAGCCCGGCUAAAAGUGGAGGGGGCGC [A30C G48C]: 0.933; for AACACCGCCUAUGCCGGUCCCAAGCCCGGAUAAAAGUGGAGGGGGCGG [U6C A10U]: 0.602.
Regarding AACACUGCCAAUGCCGGUCCCAAACCCGGAUAAAAUUGGAGGGGGCGG [G24A G36U], the self-cleavage came out at 0.0791.
As to AACACUGCCAAUGCCGGUCCCAAGCCCGGAUAAAAGUGGAGAGGUCGG [G42A G45U], the self-cleavage was determined as 0.153.
The figure for AACACUGCCAAUGCCGGUCCCAAGCCCGGAUAAAAGCGGAGGAGGCGG [U37C G43A] is 0.142.
The same measure for AACACUGCCACUGCCGGUCCCAAGCCCGGAUAAAAAUGGAGGGGGCGG [A11C G36A]: 0.87.
The figure for AACACUGCCAAUGCCGGUCCCCAGCCCAGAUAAAAGUGGAGGGGGCGG [A22C G28A] is 0.862.
Turning to AACACUGCCAAUUCCGGUCCCAAGCCCGGAUAAAUGUGGAGGGGGCGG [G13U A35U], the self-cleavage was determined as 0.696.
The figure for AACACUGCCAAUGCCAGUCCCAAGCCCGGAUAAAAAUGGAGGGGGCGG [G16A G36A] is 0.409.
Turning to AACACUGCCAAUGCCGGUUCCAAGCCCGGAUAAAAGUGGAGGGGUCGG [C19U G45U], the self-cleavage stood at 0.563.
The same measure for AACACUGCCAAUGGCGGUCCCAAGCCCGGAUAAAAGUGGACGGGGCGG [C14G G41C]: 0.0824.
Consider AACACUGCCAAUGACGGUCCCAAGCCCGGAUAACAGUGGAGGGGGCGG [C14A A34C], for which the self-cleavage is 0.426.
Turning to AAUACUGCCAAUGCCGGUCCCAAGCACGGAUAAAAGUGGAGGGGGCGG [C3U C26A], the self-cleavage was 0.148.
In the case of AACACUGCCAAUGCCCGUCCCAAGCCCGGAUAAAAUUGGAGGGGGCGG [G16C G36U], the self-cleavage was determined as 0.113.
The same measure for AACACUGCCAAUGCCGGUCCCAAGCCCCGAUAAAAGUGGAGGGUGCGG [G28C G44U]: 0.738; for AACACUGCCAAUCCCGGUCCCAAGCCCGGAUAAAAGUGGAGGGGGAGG [G13C C46A]: 0.232.
